Results as given in patent US20110117206A1, “PHOSPHOPEPTIDES AND USE OF THE SAME” (PLANT BIOSCIENCE LIMITED, priority 2008, published 2011).

What was measured:
[1] = Stability and reconstitution of nanocluster solutions (urea/urease method); format: physicochemical; details: in the original volume of water; clear solution, nanocluster size unchanged
Description: Nanoclusters were prepared by the urea/urease method, as discussed above and as known in the art (Holt, C., Wahlgren, N. M. & Drakenberg, T. (1996). Ability of a beta-casein phosphopeptide to modulate the precipitation of calcium phosphate by forming amorphous dicalcium phosphate nanoclusters. Biochemical Journal 314, 1035-1039) but wherein the phosphopeptide was provided by either the OPNmix, discussed above, or fractions from the gel filtration separation. Typically, an OPNmix sample (25 mg) was dissolved in 1 ml of water and dialysed overnight against 500 ml of 1 mM EDTA followed by exhaustive dialysis against deionised water to remove Ca ions. The Ca-free peptides were recovered by freeze drying.
An initial under-saturated solution of salts at pH 5 with the composition 22 mM Ca(NO3)2, 20 mM KH2PO4, 36 mM KNO3 and 1.5 mM NaN3 (Mg-free Buffer A) was used to dissolve the peptide. Sufficient urea (0-30 mM) was added from a stock solution of 200 mM to give the desired final pH after hydrolysis with 2 units of urease from Canavalia ensiformis (Calbiochem product no. 666133). These conditions allowed the pH to rise to within 0.004 units of the target value within a few minutes. […]

[2] = Partition of salts by ultrafiltration and ion equilibria model of nanocluster solutions; format: physicochemical; details: nanocluster solution at pH 7.0
Description: Nanocluster solutions of the Ca-free OPNmix in the Mg-free Buffer A were prepared by the urea/urease method with a pH between 5.0 and 7.5. They were allowed to equilibrate before ultrafiltration through Vivaspin 0.5 ml concentrators (Product VS0101 with a molecular weight cut off of 10,000 Da, Vivascience AG, Germany) using a centripetal field of 5000×g for 15 min. […] The ion activity product in the ultrafiltrates were calculated at each pH for a range of y values in order to find the value that was independent of pH.
In addition to the work with the OPNmix sample, a single determination was made of the partition of salts in a nanocluster solution at pH 7.0 prepared with the pure OPN 1-149 peptide.

[3] = Ca2+ binding isotherm (Ca ion selective electrode) fitted with semi-empirical binding model; details: 6.4 = high affinity dianionic phosphoseryl sites; listed as OPN peptide
Description: To model the chemical species in the OPN 1-149 nanocluster solution requires the calculation of Ca ion binding to the free peptide at any pH in the range 5.0-8.0. A semi-empirical model was used to describe the binding isotherms obtained previously for the β-casein 1-25 phosphopeptide in this pH range and the same model was adapted to fit the binding isotherm of OPN 1-149 measured at pH 7.0. The rescaled model was then used to predict binding at any other value of the pH. Binding of Ca ions to the β-casein 1-25 peptide is predominantly to 4 phosphorylated residues and, to a lesser extent, to 7 Glu residues and the C-terminus.
Fitting of the experimental isotherms was done to an equation of the form
where the summation is over all binding sites with Ca ion association constants Ka,i. The function Ni(pH) describes the number of sites of type i as a function of pH and φi is the degree of phosphorylation. It was assumed, that all the phosphorylated sites had the average degree of phosphorylation φ. The number of dianionic phosphoseryl sites at a given pH is given by
The binding behaviour of β-casein has shown that one Ca ion is bound much more strongly than the rest, so the model for binding to the phosphate dianionic groups allowed for two pKs and two Ca ion association constants. The phosphorylated sites have a reduced affinity for Ca ions when they become protonated and were treated as having the same low affinity as the carboxyl groups. […]
The Ca^2+ binding isotherm of peptides recovered from fraction F3a was determined by measuring the concentration of free Ca ions with a Ca ion selective electrode after successive small additions of a stock solution of 100 mM Ca(NO3)2 to a solution containing 25 mg ml^−1 of F3a, buffered to pH 7.0 with 20 mM P, and 50 mM KNO3. […] The calculated OPN 1-149 isotherm was obtained by a separate fitting of the single isotherm employing a model with two pKs and association constants but keeping as many as possible of the constants from the casein model.

For “OPN 1-149: N-terminal osteopontin phosphopeptide fragment from bovine milk, probably formed by plasmin; gel filtration fraction F3a”, which “dissolution of freeze-dried nanocluster powder” value [1] is on record?
Its value is “dissolve virtually instantly”.

And the “ultrafiltrate concentration of Ca, experimental” value [2]?
The value was 1.4 mM.

And the “ultrafiltrate concentration of Ca^2+, experimental” value [2]?
Its value is 1.1 mM.

What about the “ultrafiltrate concentration of Pi, experimental” value [2] of the same substance?
Its value is 12.1 mM.

What about the “pKs fitted to the OPN 1-149 isotherm” value [3] of the same substance?
The value was 6.4.
